Data: patent US20030229041A1

Target: bone morphogenetic protein 6 (UniProt P22004)
Experiment: cell-based or functional assay

UniProt P22004, sequence (P22004 382-513 limits assumed): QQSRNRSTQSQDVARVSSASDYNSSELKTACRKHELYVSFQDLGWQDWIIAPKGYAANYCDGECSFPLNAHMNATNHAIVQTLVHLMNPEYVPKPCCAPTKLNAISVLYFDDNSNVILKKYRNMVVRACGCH

BMP-6 stimulated alkaline phosphatase activity in mouse mesenchymal C3H10T1/2 cells (IC50): 0.3 µg/mL
Substance: mouse noggin (from UniProt P97466 28-232)
